Values quoted from earlier work, collected in PMC12394151.

Target: IL-6R (Homo sapiens) (UniProt P08887)
Assay: BLI
Settings: cited from earlier work

Sequence of IL-6R (Homo sapiens) (P08887 20-355): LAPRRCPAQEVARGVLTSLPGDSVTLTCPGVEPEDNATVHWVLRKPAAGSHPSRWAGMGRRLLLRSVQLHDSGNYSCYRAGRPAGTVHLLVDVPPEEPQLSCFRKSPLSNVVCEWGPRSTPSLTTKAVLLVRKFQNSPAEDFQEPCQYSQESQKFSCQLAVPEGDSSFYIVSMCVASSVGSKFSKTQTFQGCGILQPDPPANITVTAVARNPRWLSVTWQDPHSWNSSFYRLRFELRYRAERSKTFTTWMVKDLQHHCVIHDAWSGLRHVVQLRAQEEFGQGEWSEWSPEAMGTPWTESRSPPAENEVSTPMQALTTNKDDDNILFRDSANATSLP

Tocilizumab
Kd: 38.8 nM
